Reference: doi:10.1101/2025.09.15.676363

Assays:
[1] = target: Full-length W2A Pcad fused to a C-terminal mCherry tag (human); experiment: co-IP
[2] = target: Full-length I175D Pcad fused to a C-terminal mCherry tag (human); experiment: co-IP
[3] = target: WT-Dsg2, complete extracellular region (EC1-5) of human desmoglein-2 (human) (UniProt Q14126); experiment: single-molecule AFM binding assay
[4] = target: W2A-Dsg2, complete extracellular region (EC1-5) of human desmoglein-2 (human) (UniProt Q14126); experiment: single-molecule AFM binding assay

Row | Substance | Dsg2 binding capacity relative to WT-Pcad (Dsg2/Pcad pull-down ratio) [1] [%] | Dsg2 binding capacity relative to WT-Pcad (Dsg2/Pcad pull-down ratio) [2] [%] | binding probability [3] [%] | binding probability [4] [%]
1 | I175D-Pcad, complete extracellular region (EC1-5) of human P-cadherin (from UniProt P22223 25-654) (domain or fragment) | – | – | 7.8 | –
2 | A5P-Pcad, complete ectodomain of human P-cadherin (from UniProt P22223 25-654) (domain or fragment) | – | – | 4.5 | –

Results, then the substance that gave them:

Row | Dsg2 binding capacity relative to WT-Pcad (Dsg2/Pcad pull-down ratio) [1] [%] | Dsg2 binding capacity relative to WT-Pcad (Dsg2/Pcad pull-down ratio) [2] [%] | binding probability [3] [%] | binding probability [4] [%] | Substance
3 | 25 | 80 | – | – | Desmoglein-2 (Dsg2), endogenous in A431 cells (from UniProt Q14126 50-1118) (natural protein)
4 | – | – | 8 | 4 | WT-Pcad, complete extracellular region (EC1-5) of human P-cadherin (from UniProt P22223 25-654) (domain or fragment)
5 | – | – | 4 | – | W2A-Pcad, complete extracellular region (EC1-5) of human P-cadherin (from UniProt P22223 25-654) (domain or fragment)
